tested on: AncSZ; assay: phosphorylation enrichment, bacterial display (enrichment ratio); higher = better substrate or ligand; peptides without Tyr show the background
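Also: 11-residue human phosphosite peptides and single-mutation variants displayed on the E. coli surface, counted by deep sequencing, each peptide's frequency after selection divided by its frequency in the unselected input library; frequency after pTyr selection over input frequency; kinase dosed for 20-30% of maximal phosphorylation in three min.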

Sequence	phosphorylation enrichment
EAVSIYQFHGQ [CBLC_Y402]	1.01
VMSGPYELKAL [IL1B_Y140]	0.51
ANSPVYVPTTR [GATA6_Y188_S184N]	0.506
GLPQTYCVSGP [DYSF_Y1684]	0.978
DDSNLYINVKL [MTHFD1_Y52]	1.45
FPKDVYVDSKD [NDUFAF4_Y69_L65P]	0.868
VSRGRYRPQEC [B4GALT4_Y113]	0.754
QPGDIYHQTWA [GBA_Y244]	0.989
MRTMGYMPTEM [CABP5_Y62]	0.683
SVVVPYEPPED [TP53_Y220_V225D]	1.31
GEHSIYCTVNN [CD55_Y266]	1.55
PNRILYGDFRQ [MYH6_Y717]	0.823
IAAEYYDNLPH [DEGS1_Y284]	1.75
FTNRSYDLDFD [MYC_Y12_N11S_YF]	0.978
YLTSSYINIST [IL23R_Y178]	0.978
IKGNMYFENSF [EGFR_Y112_R108K_YF]	0.991
ITVPAYFNDSQ [HSPA9_Y196]	0.895

Sequence	phosphorylation enrichment
ITNVLYHVVGW [GBA_Y412_L410V]	1.06
FETDFYRKGGK [INSR_Y1190_YF]	0.629
RPCVVYGGADI [DDX3X_Y301]	1
ASIVDYNIIGW [MYH7_Y588_G584S]	1.11
RGSQQYRALTV [TUBB8_Y281]	0.862
EDAHHYLCKEV [JAK2_Y382_A377E]	0.799
DFKIIYIVPMR [SNRNP200_Y540_A542V]	1.09
RRDRDYTNLPS [CSF1R_Y923_E920D]	1.15
LRAGVYHEKDQ [DNM2_Y626_P627H]	0.735
QGRQTYLLQPA [DDR2_Y813_P815L]	0.498
KPGLKYVTFGN [GALNTL5_Y404_YF]	0.671
TLARLYHPDST [LRIG1_Y1029]	0.508
SVTSTYSPALN [TP53_Y126_C124S]	0.641
EYGFRYELVQY [UGGT2_Y1289]	1.83
RDMMDYMLQGV [CYP21A2_Y259]	1.2
IRTIDYRYTVW [IDS_Y497]	1.15

molecular target: EPHB1 (UniProt P54762); assay: as above
Sequence (P54762 whole entry, looked up): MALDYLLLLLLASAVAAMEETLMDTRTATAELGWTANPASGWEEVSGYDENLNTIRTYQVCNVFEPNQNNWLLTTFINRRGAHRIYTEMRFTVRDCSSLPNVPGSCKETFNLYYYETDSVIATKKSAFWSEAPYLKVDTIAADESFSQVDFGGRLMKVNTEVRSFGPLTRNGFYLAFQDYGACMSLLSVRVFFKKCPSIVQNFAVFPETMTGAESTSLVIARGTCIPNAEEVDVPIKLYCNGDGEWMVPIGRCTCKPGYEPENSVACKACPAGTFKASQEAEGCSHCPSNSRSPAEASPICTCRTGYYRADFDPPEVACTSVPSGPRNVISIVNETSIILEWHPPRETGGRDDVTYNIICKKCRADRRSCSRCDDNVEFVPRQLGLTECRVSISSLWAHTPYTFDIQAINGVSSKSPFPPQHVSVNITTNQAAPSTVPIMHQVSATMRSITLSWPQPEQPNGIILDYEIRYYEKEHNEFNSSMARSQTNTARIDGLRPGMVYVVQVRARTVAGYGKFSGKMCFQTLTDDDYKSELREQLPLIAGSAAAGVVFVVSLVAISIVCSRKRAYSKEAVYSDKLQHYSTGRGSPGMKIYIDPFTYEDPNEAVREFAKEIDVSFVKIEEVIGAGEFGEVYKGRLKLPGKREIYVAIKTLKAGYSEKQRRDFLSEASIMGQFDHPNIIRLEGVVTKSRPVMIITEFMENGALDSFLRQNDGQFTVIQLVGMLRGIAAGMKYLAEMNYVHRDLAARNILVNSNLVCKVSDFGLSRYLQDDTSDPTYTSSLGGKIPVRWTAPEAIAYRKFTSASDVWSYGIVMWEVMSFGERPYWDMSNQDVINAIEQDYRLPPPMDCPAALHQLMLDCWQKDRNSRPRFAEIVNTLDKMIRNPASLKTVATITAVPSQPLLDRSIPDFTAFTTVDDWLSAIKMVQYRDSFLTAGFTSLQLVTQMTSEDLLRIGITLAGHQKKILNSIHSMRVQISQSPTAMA

Sequence	phosphorylation enrichment
EAVSIYQFHGQ [CBLC_Y402]	2.31
VMSGPYELKAL [IL1B_Y140]	0.303
ANSPVYVPTTR [GATA6_Y188_S184N]	0.371
GLPQTYCVSGP [DYSF_Y1684]	0.72
DDSNLYINVKL [MTHFD1_Y52]	0.777
FPKDVYVDSKD [NDUFAF4_Y69_L65P]	0.38
VSRGRYRPQEC [B4GALT4_Y113]	0.527
QPGDIYHQTWA [GBA_Y244]	0.825
MRTMGYMPTEM [CABP5_Y62]	0.428
SVVVPYEPPED [TP53_Y220_V225D]	0.607
GEHSIYCTVNN [CD55_Y266]	6.56
PNRILYGDFRQ [MYH6_Y717]	0.538
IAAEYYDNLPH [DEGS1_Y284]	0.797
FTNRSYDLDFD [MYC_Y12_N11S_YF]	0.505
YLTSSYINIST [IL23R_Y178]	0.735
IKGNMYFENSF [EGFR_Y112_R108K_YF]	0.589
ITVPAYFNDSQ [HSPA9_Y196]	0.473

Sequence	phosphorylation enrichment
ITNVLYHVVGW [GBA_Y412_L410V]	2.31
FETDFYRKGGK [INSR_Y1190_YF]	0.621
RPCVVYGGADI [DDX3X_Y301]	0.901
ASIVDYNIIGW [MYH7_Y588_G584S]	0.742
RGSQQYRALTV [TUBB8_Y281]	0.368
EDAHHYLCKEV [JAK2_Y382_A377E]	0.656
DFKIIYIVPMR [SNRNP200_Y540_A542V]	0.525
RRDRDYTNLPS [CSF1R_Y923_E920D]	0.604
LRAGVYHEKDQ [DNM2_Y626_P627H]	0.629
QGRQTYLLQPA [DDR2_Y813_P815L]	0.5
KPGLKYVTFGN [GALNTL5_Y404_YF]	0.351
TLARLYHPDST [LRIG1_Y1029]	0.422
SVTSTYSPALN [TP53_Y126_C124S]	0.437
EYGFRYELVQY [UGGT2_Y1289]	0.986
RDMMDYMLQGV [CYP21A2_Y259]	1.34
IRTIDYRYTVW [IDS_Y497]	0.666

molecular target: EPHB2 (UniProt P29323); assay: as above
Sequence (P29323 whole entry, looked up): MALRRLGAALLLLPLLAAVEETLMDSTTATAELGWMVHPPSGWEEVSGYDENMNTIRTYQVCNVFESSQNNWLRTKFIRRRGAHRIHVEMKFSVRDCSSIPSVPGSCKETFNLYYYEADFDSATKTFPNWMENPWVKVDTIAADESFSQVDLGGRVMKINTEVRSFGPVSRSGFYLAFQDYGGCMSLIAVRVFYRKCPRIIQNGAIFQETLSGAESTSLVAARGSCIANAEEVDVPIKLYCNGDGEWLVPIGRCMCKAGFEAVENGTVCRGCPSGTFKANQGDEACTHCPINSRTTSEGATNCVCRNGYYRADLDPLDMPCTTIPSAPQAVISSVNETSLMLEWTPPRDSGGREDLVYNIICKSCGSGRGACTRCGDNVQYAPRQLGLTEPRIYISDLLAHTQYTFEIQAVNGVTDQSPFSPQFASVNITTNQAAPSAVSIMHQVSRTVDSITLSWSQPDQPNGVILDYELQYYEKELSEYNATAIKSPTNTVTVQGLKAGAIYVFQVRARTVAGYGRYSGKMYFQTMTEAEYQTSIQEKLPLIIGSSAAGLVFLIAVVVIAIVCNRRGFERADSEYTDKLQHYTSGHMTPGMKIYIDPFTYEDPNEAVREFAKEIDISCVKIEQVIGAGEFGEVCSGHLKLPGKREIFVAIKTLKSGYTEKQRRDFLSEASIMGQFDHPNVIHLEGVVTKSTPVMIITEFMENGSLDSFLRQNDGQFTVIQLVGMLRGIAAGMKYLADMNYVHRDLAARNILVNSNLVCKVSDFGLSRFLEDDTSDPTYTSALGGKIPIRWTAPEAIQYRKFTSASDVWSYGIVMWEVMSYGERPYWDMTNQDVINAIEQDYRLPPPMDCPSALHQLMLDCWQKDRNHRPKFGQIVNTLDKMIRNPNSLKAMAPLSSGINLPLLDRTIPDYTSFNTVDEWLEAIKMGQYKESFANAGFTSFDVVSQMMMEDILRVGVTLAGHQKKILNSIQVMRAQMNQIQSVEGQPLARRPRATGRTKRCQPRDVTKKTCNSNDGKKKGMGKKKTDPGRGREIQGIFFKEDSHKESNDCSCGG

Sequence	phosphorylation enrichment
EAVSIYQFHGQ [CBLC_Y402]	1.62
VMSGPYELKAL [IL1B_Y140]	0.512
ANSPVYVPTTR [GATA6_Y188_S184N]	0.405
GLPQTYCVSGP [DYSF_Y1684]	0.667
DDSNLYINVKL [MTHFD1_Y52]	0.804
FPKDVYVDSKD [NDUFAF4_Y69_L65P]	0.36
VSRGRYRPQEC [B4GALT4_Y113]	0.476
QPGDIYHQTWA [GBA_Y244]	0.88
MRTMGYMPTEM [CABP5_Y62]	0.509
SVVVPYEPPED [TP53_Y220_V225D]	0.641
GEHSIYCTVNN [CD55_Y266]	5.39
PNRILYGDFRQ [MYH6_Y717]	0.731
IAAEYYDNLPH [DEGS1_Y284]	0.813
FTNRSYDLDFD [MYC_Y12_N11S_YF]	0.58
YLTSSYINIST [IL23R_Y178]	0.588
IKGNMYFENSF [EGFR_Y112_R108K_YF]	0.446
ITVPAYFNDSQ [HSPA9_Y196]	0.491

Sequence	phosphorylation enrichment
ITNVLYHVVGW [GBA_Y412_L410V]	1.32
FETDFYRKGGK [INSR_Y1190_YF]	0.639
RPCVVYGGADI [DDX3X_Y301]	0.543
ASIVDYNIIGW [MYH7_Y588_G584S]	0.528
RGSQQYRALTV [TUBB8_Y281]	0.518
EDAHHYLCKEV [JAK2_Y382_A377E]	0.493
DFKIIYIVPMR [SNRNP200_Y540_A542V]	0.532
RRDRDYTNLPS [CSF1R_Y923_E920D]	0.682
LRAGVYHEKDQ [DNM2_Y626_P627H]	0.451
QGRQTYLLQPA [DDR2_Y813_P815L]	0.529
KPGLKYVTFGN [GALNTL5_Y404_YF]	0.539
TLARLYHPDST [LRIG1_Y1029]	0.549
SVTSTYSPALN [TP53_Y126_C124S]	0.426
EYGFRYELVQY [UGGT2_Y1289]	0.879
RDMMDYMLQGV [CYP21A2_Y259]	0.827
IRTIDYRYTVW [IDS_Y497]	0.566

molecular target: FGFR1 (UniProt P11362); assay: as above
Sequence (P11362 whole entry, looked up): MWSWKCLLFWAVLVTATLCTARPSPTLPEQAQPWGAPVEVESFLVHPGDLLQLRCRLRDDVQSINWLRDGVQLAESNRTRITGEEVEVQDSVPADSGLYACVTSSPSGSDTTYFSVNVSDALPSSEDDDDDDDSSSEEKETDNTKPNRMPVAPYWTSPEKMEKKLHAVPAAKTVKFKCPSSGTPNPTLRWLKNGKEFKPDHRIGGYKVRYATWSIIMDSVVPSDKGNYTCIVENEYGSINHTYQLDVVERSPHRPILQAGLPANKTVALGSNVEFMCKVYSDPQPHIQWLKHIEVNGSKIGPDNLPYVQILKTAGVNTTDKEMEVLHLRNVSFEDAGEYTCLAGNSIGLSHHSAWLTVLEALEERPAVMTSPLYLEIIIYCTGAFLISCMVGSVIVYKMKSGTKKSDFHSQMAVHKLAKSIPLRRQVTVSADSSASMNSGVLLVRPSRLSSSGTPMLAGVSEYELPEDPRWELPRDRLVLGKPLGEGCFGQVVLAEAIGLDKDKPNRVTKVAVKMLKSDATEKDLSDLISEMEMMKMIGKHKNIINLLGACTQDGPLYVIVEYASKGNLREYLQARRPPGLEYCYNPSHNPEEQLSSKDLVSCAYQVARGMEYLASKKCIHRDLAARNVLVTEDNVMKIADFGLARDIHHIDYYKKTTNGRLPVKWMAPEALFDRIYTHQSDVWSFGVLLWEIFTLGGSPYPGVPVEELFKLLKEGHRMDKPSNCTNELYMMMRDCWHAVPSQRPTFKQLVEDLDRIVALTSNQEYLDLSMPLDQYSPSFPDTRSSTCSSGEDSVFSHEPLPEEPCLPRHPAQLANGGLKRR

Sequence	phosphorylation enrichment
EAVSIYQFHGQ [CBLC_Y402]	0.554
VMSGPYELKAL [IL1B_Y140]	0.419
ANSPVYVPTTR [GATA6_Y188_S184N]	0.419
GLPQTYCVSGP [DYSF_Y1684]	0.497
DDSNLYINVKL [MTHFD1_Y52]	0.702
FPKDVYVDSKD [NDUFAF4_Y69_L65P]	0.588
VSRGRYRPQEC [B4GALT4_Y113]	0.475
QPGDIYHQTWA [GBA_Y244]	3.42
MRTMGYMPTEM [CABP5_Y62]	0.63
SVVVPYEPPED [TP53_Y220_V225D]	0.545
GEHSIYCTVNN [CD55_Y266]	0.955
PNRILYGDFRQ [MYH6_Y717]	0.501
IAAEYYDNLPH [DEGS1_Y284]	7.81
FTNRSYDLDFD [MYC_Y12_N11S_YF]	0.685
YLTSSYINIST [IL23R_Y178]	1.27
IKGNMYFENSF [EGFR_Y112_R108K_YF]	0.516
ITVPAYFNDSQ [HSPA9_Y196]	0.581

Sequence	phosphorylation enrichment
ITNVLYHVVGW [GBA_Y412_L410V]	6.43
FETDFYRKGGK [INSR_Y1190_YF]	0.435
RPCVVYGGADI [DDX3X_Y301]	0.715
ASIVDYNIIGW [MYH7_Y588_G584S]	0.948
RGSQQYRALTV [TUBB8_Y281]	0.428
EDAHHYLCKEV [JAK2_Y382_A377E]	0.588
DFKIIYIVPMR [SNRNP200_Y540_A542V]	0.55
RRDRDYTNLPS [CSF1R_Y923_E920D]	0.815
LRAGVYHEKDQ [DNM2_Y626_P627H]	0.635
QGRQTYLLQPA [DDR2_Y813_P815L]	0.63
KPGLKYVTFGN [GALNTL5_Y404_YF]	0.412
TLARLYHPDST [LRIG1_Y1029]	0.344
SVTSTYSPALN [TP53_Y126_C124S]	0.511
EYGFRYELVQY [UGGT2_Y1289]	0.872
RDMMDYMLQGV [CYP21A2_Y259]	0.73
IRTIDYRYTVW [IDS_Y497]	0.554
